In the supplement of paper PMC10567573:

B1: ZNF511 (parent)
chain: FDALDDYEHHYHTLHGNVCSFCKR

Variants of: B1
Experiment: protein stability index of a GFP-peptide fusion (GPS, HEK-293T) (PSI 1-6); higher = more stable
Conditions: c terminus: a fixed tail appended
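Note: lentivirally expressed fusions sorted by FACS into six bins by GFP to DsRed ratio, PSI derived from sequencing read proportions per bin multiplied by bin number.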

Protein stability index: each site, then its substitutions
L14: S 4.08 | G 4.22 | N 4.18 | I 3.92 | V 4.53 | A 3.98 | F 3.59 | T 4.04 | H 4.24 | C 4.85 | P 4.71 | K 3.54 | W 3.17 | E 4.48 | M 3.99 | Y 3.81 | D 4.33 | R 3.63 | Q 4.28
H12: I 2.16 | G 3.58 | D 4.41 | E 2.95 | F 2.9 | N 3.27 | Y 2.48 | S 3.12 | A 2.96 | M 2.73 | K 2.58 | Q 3.3 | T 3.29 | W 2.38 | L 2.71 | V 3.27 | R 3.36 | P 3.31 | C 4.18
C19: M 2.63 | V 2.41 | E 3.21 | H 3.19 | W 1.92 | P 3.1 | F 2.24 | S 3.04 | T 3.41 | L 3.71 | K 3.27 | I 2.66 | Q 2.92 | G 2.9 | N 3.13 | R 2.75 | Y 2.2 | D 3.36 | A 3.11
V18: M 3.68 | Y 3.7 | C 3.66 | F 2.97 | T 3.76 | N 3.89 | Q 4.18 | E 4.36 | A 3.7 | S 3.82 | G 4.05 | P 4.49 | K 4.05 | R 3.88 | L 3.83 | D 4.12 | W 2.8 | H 2.93 | I 3.53
S20: C 3.4 | G 2.7 | H 3.56 | A 3.81 | F 3.67 | E 4.44 | I 3.83 | D 2.75
Y11: Q 4.93 | W 2.34 | V 4.49 | S 4.14 | R 4.61 | T 4.62 | P 3.22
N17: I 3.25 | T 3.5 | G 3.64 | R 3.9 | Y 2.93 | S 3.98 | H 3.64 | W 2.6 | E 3.96 | A 3.55 | D 4.23 | F 3.1 | V 3.67 | P 3.16 | M 3.54 | C 2.5 | K 3.22 | L 2.29 | Q 2.24
T13: M 3.5 | C 4.5 | D 3.91 | F 2.65 | E 4.27 | N 3.56 | H 4.17 | R 3.07 | A 3.82 | S 3.54 | G 4.15 | V 3.77 | L 3.24 | Y 2.92 | K 3.4 | Q 3.66 | P 4.19 | W 2.78 | I 3.19
G16: R 3.47 | S 3.37 | W 2.66 | L 2.98 | N 3.72 | H 3.5 | P 3.46 | K 3.22 | C 3.42 | A 3.72 | Q 3.3 | I 3.15 | F 2.9 | Y 2.85 | V 2.96 | E 3.75 | T 3.47 | D 3.87 | M 3.15
H15: M 3.88 | S 4.13 | N 3.96 | T 4.48 | K 3.61 | E 4.36 | W 3.3 | D 3.97 | L 2.6 | A 3.86 | Q 3.96 | P 3.3 | G 3.92 | V 3.73 | C 3.89 | I 3.55 | F 2.26 | Y 3.23 | R 3.83
